Target: T1, 6xHis-ERp57 (human, UniProt P30101 24-505)
T1 construct: ERp57, human cDNA without the region encoding the N-terminal signal peptide (amino acids 1-23); also called wt ERp57; wild-type 6xHis-ERp57; source: E. coli, purified (Ni-NTA); not shown: 6xHis, N-terminal, kept
T1 sequence (looked up): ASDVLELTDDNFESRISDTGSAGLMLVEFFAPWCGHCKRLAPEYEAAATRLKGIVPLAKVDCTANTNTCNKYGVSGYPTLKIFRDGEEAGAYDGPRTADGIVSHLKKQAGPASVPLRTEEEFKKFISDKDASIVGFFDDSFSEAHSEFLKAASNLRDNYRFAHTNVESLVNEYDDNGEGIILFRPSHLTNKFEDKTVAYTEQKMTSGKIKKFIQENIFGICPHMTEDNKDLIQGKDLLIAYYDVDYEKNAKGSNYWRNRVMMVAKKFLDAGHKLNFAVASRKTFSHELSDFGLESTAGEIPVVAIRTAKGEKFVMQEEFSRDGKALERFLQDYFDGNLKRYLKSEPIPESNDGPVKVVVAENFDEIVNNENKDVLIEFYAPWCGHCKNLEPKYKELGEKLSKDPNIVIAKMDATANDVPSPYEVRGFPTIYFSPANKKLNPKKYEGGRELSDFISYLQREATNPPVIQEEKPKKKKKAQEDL
Assay: pull-down; GST-RalA loaded with GDP as bait; purified 6xHis-ERp57 or mutants; Western blot with anti-6xHis antibody; with or without 1 mM DTT
Conditions: both partners purified

B1: GST-RalA (natural protein, simian, UniProt P63320 1-206, looked up)
chain: MAANKPKGQNSLALHKVIMVGSGGVGKSALTLQFMYDEFVEDYEPTKADSYRKKVVLDGEEVQIDILDTAGQEDYAAIRDNYFRSGEGFLCVFSITEMESFAATADFREQILRVKEDENVPFLLVGNKSDLEDKRQVSVEEAKNRADQWNVNYVETSAKTRANVDKVFFDLMREIRARKMEDSKEKNGKKKRKSLAKRIRERCCIL
notes: RalA, simian cDNA (pGEX-2T-RalA from Yoshito Kaziro); loaded with GDP or GTP immediately before use; Nucleotide state (GDP or GTP) is told by the assay; also called RalA-GDP; RalA-GTP; source: when necessary eluted with reduced GSH and dialysed; not shown: GST, N-terminal, kept
binding result: binds
